Here are results for 13 molecules from patent US20210095007A1 (MIT, published 2021).

Assay [1] concerns the target T1, Ebola GPdTM (IBT Bioservices) (Ebola virus, UniProt Q05320 33-650).
T1 sequence: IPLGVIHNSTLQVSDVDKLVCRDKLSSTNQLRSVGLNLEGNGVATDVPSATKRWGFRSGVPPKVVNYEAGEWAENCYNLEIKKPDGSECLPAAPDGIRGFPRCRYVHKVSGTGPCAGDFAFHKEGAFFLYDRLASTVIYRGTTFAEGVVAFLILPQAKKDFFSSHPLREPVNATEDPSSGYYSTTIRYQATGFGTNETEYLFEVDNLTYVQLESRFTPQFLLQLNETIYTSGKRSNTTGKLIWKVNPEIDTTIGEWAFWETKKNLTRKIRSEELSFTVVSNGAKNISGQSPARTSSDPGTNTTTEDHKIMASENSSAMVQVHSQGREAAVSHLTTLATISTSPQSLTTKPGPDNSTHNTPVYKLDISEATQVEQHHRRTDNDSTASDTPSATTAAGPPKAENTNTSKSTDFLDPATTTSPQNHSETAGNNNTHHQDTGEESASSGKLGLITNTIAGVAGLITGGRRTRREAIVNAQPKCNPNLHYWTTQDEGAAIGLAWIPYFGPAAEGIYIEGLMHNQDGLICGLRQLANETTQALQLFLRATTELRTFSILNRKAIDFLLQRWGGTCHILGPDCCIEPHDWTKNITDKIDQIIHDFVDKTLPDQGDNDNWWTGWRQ
Put plainly: ELISA, GPdTM coated at 1 µg/mL, anti-human IgG Fc-HRP detection.

The target in assay [2] is T2, Ebola virus glycoprotein on Ebola virus Kikwit 1995 strain (Zaire Ebola virus, Kikwit 1995 strain, UniProt P87666 33-676).
T2 sequence: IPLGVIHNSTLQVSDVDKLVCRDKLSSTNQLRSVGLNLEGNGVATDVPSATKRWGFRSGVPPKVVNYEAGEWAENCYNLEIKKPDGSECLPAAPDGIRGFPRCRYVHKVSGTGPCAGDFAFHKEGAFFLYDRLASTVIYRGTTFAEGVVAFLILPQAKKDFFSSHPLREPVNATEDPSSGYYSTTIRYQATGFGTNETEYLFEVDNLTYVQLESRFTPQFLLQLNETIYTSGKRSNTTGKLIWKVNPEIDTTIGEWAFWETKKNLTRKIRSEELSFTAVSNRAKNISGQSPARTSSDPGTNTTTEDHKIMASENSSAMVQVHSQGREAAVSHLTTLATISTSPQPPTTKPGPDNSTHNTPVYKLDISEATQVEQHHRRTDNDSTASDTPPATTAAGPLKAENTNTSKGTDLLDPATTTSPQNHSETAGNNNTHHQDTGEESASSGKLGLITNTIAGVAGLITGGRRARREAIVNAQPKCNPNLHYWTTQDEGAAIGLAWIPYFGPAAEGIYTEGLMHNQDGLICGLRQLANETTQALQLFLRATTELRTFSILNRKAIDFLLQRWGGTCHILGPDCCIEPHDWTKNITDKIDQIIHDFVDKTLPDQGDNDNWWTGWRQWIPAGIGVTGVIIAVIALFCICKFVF
Put plainly: cell-based or functional assay.

Assay [3] concerns the target T3, Ebola virus glycoprotein on Ebola virus Mayinga 1976 strain (Zaire Ebola virus, Mayinga 1976 strain, UniProt Q05320 33-676).
T3 sequence: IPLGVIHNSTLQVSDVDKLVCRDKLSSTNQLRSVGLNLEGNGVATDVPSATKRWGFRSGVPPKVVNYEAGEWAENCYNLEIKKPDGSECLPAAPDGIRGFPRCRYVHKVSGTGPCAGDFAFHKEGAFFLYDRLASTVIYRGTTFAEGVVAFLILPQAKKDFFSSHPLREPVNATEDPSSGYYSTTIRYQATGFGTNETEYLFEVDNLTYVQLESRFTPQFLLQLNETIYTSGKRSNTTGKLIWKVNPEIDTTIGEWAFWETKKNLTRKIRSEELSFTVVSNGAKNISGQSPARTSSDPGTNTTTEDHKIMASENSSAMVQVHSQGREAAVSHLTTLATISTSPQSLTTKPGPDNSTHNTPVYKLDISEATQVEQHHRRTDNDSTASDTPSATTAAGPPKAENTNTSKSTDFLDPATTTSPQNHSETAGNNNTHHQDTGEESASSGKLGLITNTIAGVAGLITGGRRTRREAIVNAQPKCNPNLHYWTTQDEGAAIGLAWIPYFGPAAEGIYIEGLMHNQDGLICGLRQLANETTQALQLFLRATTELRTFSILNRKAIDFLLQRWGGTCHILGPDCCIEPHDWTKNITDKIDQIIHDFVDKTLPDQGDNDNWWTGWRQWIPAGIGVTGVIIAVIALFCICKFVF
The assay can be described thus: cell-based or functional assay.

For assay [4], the target named is Ebola virus glycoprotein on Ebola virus Makona 2014 strain (Zaire Ebola virus, Makona 2014 strain). The assay can be described thus: cell-based or functional assay.

B1: 2G4 wild type (parent mouse monoclonal antibody 2G4) (antibody, V domains shown)
VH: EVQLQQSGGGLMQPGGSMKLSCVASGFTFSNYWMNWVRQSPEKGLEWVAEIRLKSNNYATHYAESVKGRFTISRDDSKRSVYLQMNTLRAEDTGIYYCTRGNGNYRAMDYWGQGTSVTVSS
VL: DIVMTQSPASLSVSVGETVSITCRASENIYSSLAWYQQKQGKSPQLLVYSATILADGVPSRFSGSGSGTQYSLKINSLQSEDFGTYYCQHFWGTPYTFGGGTKLEIK
Consider B1, for which, in assay [1], the EC50 (as a rule, the concentration giving half of the maximal effect) was determined as 0.154 nM.

B2: 13C6 wild type (parent mouse monoclonal antibody 13C6) (antibody, V domains shown)
VH: QLTLKESGPGILKPSQTLSLTCSLSGFSLSTSGVGVGWFRQPSGKGLEWLALIWWDDDKYYNPSLKSQLSISKDFSRNQVFLKISNVDIADTATYYCARRDPFGYDNAMGYWGQGTSVTVSS
VL: DIVMTQSQKFMSTSVGDRVSLTCKASQNVGTAVAWYQQKPGQSPKLLIYSASNRYTGVPDRFTGSGSGTDFTLTISNMQSEDLADYFCQQYSSYPLTFGAGTKLELR
In assay [1], B2 returned an EC50 of 0.0747 nM.

B3: 13C6.1 (antibody, V domains shown)
VH: QLTLKESGPTLVKPTQTLSLTCTFSGFSLSTSGVGVGWFRQPPGKALEWLALIWWDDDKYYSPSLKSRLTITKDTSKNQVVLTMTNMDPVDTATYYCARRDPFGYDNAMGYWGQGTTVTVSS
VL: DIVMTQSPSFLSASVGDRVTITCKASQNVGTAVAWYQQKPGKAPKLLIYSASNRYSGVPSRFSGSGSGTDFTLTISSLQPEDFATYFCQQYSSYPLTFGGGTKLEIK
As to B3, the “plaque reduction neutralization titre (Vero E6 cells, 200 pfu)” value (shortened to “plaque reduction neutralization titre”) in assay [2], in assay [3] and in assay [4] was greater than 50 µg/mL throughout. The molecule also yielded a half-maximal effective concentration (EC50) in assay [1] of 0.136 nM.

B4: 4G7 wild type (parent mouse monoclonal antibody 4G7) (antibody, V domains shown)
VH: EVQLQQSGPELEMPGASVKISCKASGSSFTGFSMNWVKQSNGKSLEWIGNIDTYYGGTTYNQKFKGKATLTVDKSSSTAYMQLKSLTSEDSAVYYCARSAYYGSTFAYWGQGTLVTVSS
VL: DIVMTQSPASLSASVGETVTITCRASENIYSYLAWYQQKQGKSPQLLVYNAKTLIEGVPSRFSGSGSGTQFSLKINSLQPEDFGSYFCQHHFGTPFTFGSGTELEIK
In turn, B4 displayed an EC50 in assay [1] of 0.0725 nM.

B5: 4G7.10 (antibody, V domains shown)
VH: QVQLVQSGAEVKKPGSSVKVSCKASGSSFTGFSMNWVRQAPGQSLEWIGNIDTYYGGTTYNGKFKGRVTLTVDKSTSTAYMELSSLRSEDTAVYYCARSAYYGSTFAYWGQGTLVTVSS
VL: DIQMTQSPSSLSASVGDRVTITCRASENIYSYLAWYQQKPGKSPKLLVYNAKTLIEGVPSRFSGSGSGTDFTFTISSLQPEDIATYFCQHHFGTPFTFGQGTKVEIK
Take B5: in assay [1], the 50% effective concentration (EC50) was found to be 0.12 nM.

B6: 4G7.3 (antibody, V domains shown)
VH: QVQLVQSGAEVKKPGSSVKVSCKASGSSFTGFSMNWVRQAPGQGLEWMGNIDTYYGGTTYNGKFKGRVTITADKSTSTAYMELSSLRSEDTAVYYCARSAYYGSTFAYWGQGTLVTVSS
VL: DIVMTQSPSSLSASVGDRVTITCRASENIYSYLAWYQQKPGKSPKLLVYNAKTLIEGVPSRFSGSGSGTQFSLTISSLQPEDIATYFCQHHFGTPFTFGSGTKVEIK
Turning to B6, the EC50 in assay [1] was found to be 0.176 nM.

B7: 4G7.2 (antibody, V domains shown)
VH: QVQLVQSGAEVKKPGSSVKVSCKASGSSFTGFSMNWVRQAPGQGLEWMGNIDTYYGGTTYNGKFKGRVTITADKSTSTAYMELSSLRSEDTAVYYCARSAYYGSTFAYWGQGTLVTVSS
VL: DIQMTQSPSSLSASVGDRVTITCRASENIYSYLAWYQQKPGKSPKLLVYNAKTLIEGVPSRFSGSGSGTDFTFTISSLQPEDIATYFCQHHFGTPFTFGQGTKVEIK
In turn, B7 had an EC50 in assay [1] of 0.0952 nM.

B8: 4G7.1 (antibody, V domains shown)
VH: QVQLVQSGAEVKKPGSSVKVSCKASGSSFTGFSMNWVRQAPGQGLEWMGNIDTYYGGTTYNGKFKGRVTITADKSTSTAYMELSSLRSEDTAVYYCARSAYYGSTFAYWGQGTLVTVSS
VL: DIQMTQSPSSLSASVGDRVTITCRASENIYSYLAWYQQKPGKAPKLLVYNAKTLIEGVPSRFSGSGSGTDFTFTISSLQPEDIATYYCQHHFGTPFTFGQGTKVEIK
In assay [1], B8 displayed an EC50 of 0.182 nM.

B9: 4G7.12 (antibody, V domains shown)
VH: QVQLVQSGAEVKKPGSSVKVSCKASGSSFTGFSMNWVRQAPGQSLEWIGNIDTYYGGTTYNGKFKGRVTLTVDKSTSTAYMELSSLRSEDTAVYYCARSAYYGSTFAYWGQGTLVTVSS
VL: DIVMTQSPSSLSASVGDRVTITCRASENIYSYLAWYQQKPGKSPKLLVYNAVTLIEGVPSRFSGSGSGTQFSLTISSLQPEDIATYFCQHHFGTPFTFGSGTKVEIK
The molecule B9 came in with an EC50 in assay [1] of 0.0888 nM.

B10: 4G7.11 (antibody, V domains shown)
VH: QVQLVQSGAEVKKPGSSVKVSCKASGSSFTGFSMNWVRQAPGQSLEWIGNIDTYYGGTTYNGKFKGRVTLTVDKSTSTAYMELSSLRSEDTAVYYCARSAYYGSTFAYWGQGTLVTVSS
VL: DIVMTQSPSSLSASVGDRVTITCRASENIYSYLAWYQQKPGKSPKLLVYNAKTLIEGVPSRFSGSGSGTQFSLTISSLQPEDIATYFCQHHFGTPFTFGSGTKVEIK
As for B10, in assay [1], the EC50 was found to be 0.145 nM.

B11: 4G7.9 (antibody, V domains shown)
VH: QVQLVQSGAEVKKPGSSVKVSCKASGSSFTGFSMNWVRQAPGQSLEWIGNIDTYYGGTTYNGKFKGRVTLTVDKSTSTAYMELSSLRSEDTAVYYCARSAYYGSTFAYWGQGTLVTVSS
VL: DIQMTQSPSSLSASVGDRVTITCRASENIYSYLAWYQQKPGKAPKLLVYNAKTLIEGVPSRFSGSGSGTDFTFTISSLQPEDIATYYCQHHFGTPFTFGQGTKVEIK
Take B11: the “plaque reduction neutralization titre” value in assay [2], in assay [3] and in assay [4] was 1 µg/mL in each case. The EC50 in assay [1] was 0.0997 nM.

B12: 2G4.3 (antibody, V domains shown)
VH: EVQLLESGGGLVQPGGSLRLSCVASGFTFSNYWMNWVRQAPGKGLEWLGFIRLKSNNYATHYSASVKGRFTISRDKSKSTLYLQMNTLQAEDSAIYYCTRGNGNYRAMDYWGQGTLVTVSS
VL: DIVMTQSPSSLSASVGDRVTITCRASENIYSSLAWYQQKPGKSPQLLVYSATILADGVPSRFSGSGSGTQYTLTISSLQPEDFATYYCQHFWGTPYTFGGGTKVEIK
On to B12, for which it took 0.129 nM to reach a half-maximal effect in assay [1] (EC50).

B13: 2G4.6 (antibody, V domains shown)
VH: EVQLLESGGGLVQPGGSLRLSCVASGFTFSNYWMNWVRQAPGKGLEWLAEIRLKSNNYATHYSASVKGRFTISRDKSKSTLYLQMNTLQAEDSAIYYCTRGNGNYRAMDYWGQGTLVTVSS
VL: DIVMTQSPSSLSASVGDRVTITCRASENIYSSLAWYQQKPGKSPQLLVYSATILADGVPSRFSGSGSGTQYTLTISSLQPEDFATYYCQHFWGTPYTFGGGTKVEIK
B13: the entries for the “plaque reduction neutralization titre” value in assay [2], in assay [3] and in assay [4] were 4 µg/mL, 2 µg/mL and 2 µg/mL, respectively. For the same molecule, the EC50 in assay [1] was 0.109 nM.
